Measurements reported in publication PMC11686370.
Values joined by “and” are separate entries in the source; they are usually repeats but may differ in a detail not shown here. Equal entries are not always repeated. Where two headings read alike, the source gives them in different places.

B1: ALCAM protein, commercially available (Sino, Cat. No. 10045-H08H-100) (receptor)
chain: WYTVNSAYGDTIIIPCRLDVPQNLMFGKWKYEKPDGSPVFIAFRSSTKKSVQYDDVPEYKDRLNLSENYTLSISNARISDEKRFVCMLVTEDNVFEAPTIVKVFKQPSKPEIVSKALFLETEQLKKLGDCISEDSYPDGNITWYRNGKVLHPLEGAVVIIFKKEMDPVTQLYTMTSTLEYKTTKADIQMPFTCSVTYYGPSGQKTIHSEQAVFDIYYPTEQVTIQVLPPKNAIKEGDNITLKCLGNGNPPPEEFLFYLPGQPEGIRSSNTYTLTDVRRNATGDYKCSLIDKKSMIASTAITVHYLDLSLNPSGEVTRQIGDALPVSCTISASRNATVVWMKDNIRLRSSPSFSSLHYQDAGNYVCETALQEVEGLKKRESLTLIVEGKPQIKMTKKTDPSGLSKTIICHVEGFPKPAIQWTITGSGSVINQTEESPYINGRYYSKIIISPEENVTLTCTAENQLERTVNSLNVSAISIPEHDEADEISDENREKVNDQAK

Assays:
Assay in all cases: SPR
[1] = target: his-tagged knob domain protein of HAdV-B7 fiber (Human adenovirus B7)
[2] = target: ALCAM protein, commercially available (Sino, Cat. No. 10045-H08H-100) (human) (UniProt Q13740)
[3] = target: his-tagged knob domain protein of HAdV-B7 fiber (Human adenovirus B7); remark: listed apart in the source

Row | Molecule | Kd [1] | Kd [2] | Kd [3]
1 | DSG-2 protein (MCE, Cat. No. HY-P77917) (from UniProt Q14126 50-609) (receptor) | 2.61 µM | – | –
2 | his-tagged knob domain protein of HAdV-B7 fiber (domain or fragment) | 3.47 µM | 0.7 µM and 0.849 µM | –
3 | B1 | – | – | 0.961 µM
